Test results taken from article PMC10164912, “Exploration of O-GlcNAc transferase glycosylation sites reveals a target sequence compositional bias” (The Journal of Biological Chemistry, 2023).

T1: TPR region of OGT (OGT-TPR, aa 2-474) not fused to SUMO (human, UniProt O15294 2-474)
T1 construct: O-GlcNAc transferase (OGT), human ncOGT (longest isoform, 1-1046, 13 TPR repeats), tetratricopeptide repeat region, residues 2-474; Unlabelled; this was not measured here; also called OGT-TPR with the SUMO tag removed
T1 sequence (looked up): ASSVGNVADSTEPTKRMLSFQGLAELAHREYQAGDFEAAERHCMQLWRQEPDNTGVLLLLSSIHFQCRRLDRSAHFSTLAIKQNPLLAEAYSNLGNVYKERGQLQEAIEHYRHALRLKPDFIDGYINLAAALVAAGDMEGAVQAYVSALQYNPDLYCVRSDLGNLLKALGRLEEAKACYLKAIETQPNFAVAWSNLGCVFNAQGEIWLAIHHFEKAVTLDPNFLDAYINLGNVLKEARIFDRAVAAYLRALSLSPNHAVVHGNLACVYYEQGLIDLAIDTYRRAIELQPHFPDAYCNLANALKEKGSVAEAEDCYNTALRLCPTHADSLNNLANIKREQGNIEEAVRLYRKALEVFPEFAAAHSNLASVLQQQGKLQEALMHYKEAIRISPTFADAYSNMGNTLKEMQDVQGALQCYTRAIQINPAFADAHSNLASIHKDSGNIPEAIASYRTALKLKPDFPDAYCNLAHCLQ

B1: WT FUS N-terminal low-complexity region (LCRN), aa 1-214 (domain or fragment, human, UniProt P35637 1-214, looked up)
chain: MASNDYTQQATQSYGAYPTQPGQGYSQQSSQPYGQQSYSGYSQSTDTSGYGQSSYSSYGQSQNTGYGTQSTPQGYGSTGGYGSSQSSQSSYGQQSSYPGYGQQPAPSSTSGSYGSSSQSSSYGQPQSGSYSQQPSYGGQQQSYGQQQSYNPPQGYGQQNQYNSSSGGGGGGGGGGNYGQDQSSMSSGGGSGGGYGNQDQSGGGGSGGYGQQDRG
notes: FUS (fused in sarcoma), human, N-terminal low-complexity region, aa 1-214; 15N-labelled for NMR; also called WT FUS LCRN; FUS LCRN
B2: Mut-F FUS N-terminal low-complexity region (LCRN), aa 1-214 (domain or fragment, human, UniProt P35637 1-214, looked up)
chain: MASNDYTQQATQSYGAYPTQPGQGYSQQSSTPYAQASYSTYSPSTTTSAYGQSSYSSYGQSQNTGYATTSTPQAYPSTAPYATSPSSQSSYGQQSSYPAYTQQPAPTTTSASYATSSQSSSYGQPQSGSYSQQPSYGGQQQSYGQQQSYNPPQGYGQQNQYNSSSGGGGGGGGGGNYGQDQSSMSSGGGSGGGYGNQDQSGGGGSGGYGQQDRG
notes: FUS (fused in sarcoma), human, N-terminal low-complexity region, aa 1-214, with the combined mutations of Mut-A, Mut-B and Mut-C; 15N-labelled for NMR; also called FUS Mut-F; Mut-F FUS LCRN

How the values were obtained:
Details in all cases: both partners purified
[1] = target: T1, TPR region of OGT (OGT-TPR, aa 2-474) …; experiment: NMR titration; 1H-15N HSQC of 15N-labelled FUS LCRN (WT or Mut-F) without and with OGT-TPR whose SUMO tag was removed; the samples with OGT-TPR phase separated, no quantitative comparison
[2] = target: B1; experiment: NMR titration; 1H-15N HSQC of 20 uM 15N-labelled FUS LCRN (WT or Mut-F) without and with 32 uM unlabelled SUMO-OGT-TPR; 600 MHz, 5 °C, 40 mM KPO4, 125 mM NaCl, 0.5 mM EDTA, 0.5 mM benzamidine, 5 mM DTT, 10% D2O, pH 7.2; peak intensity ratios plus OGT-TPR/apo
[3] = target: B2; experiment: as above

| Binder | binding result [1] | average peak intensity ratio (plus OGT-TPR/apo) [2] | average peak intensity ratio (plus OGT-TPR/apo) [3] |
| --- | --- | --- | --- |
| B1 | binds | – | – |
| B2 | binds | – | – |
| TPR region of OGT (OGT-TPR, aa 2-474) fused to a SUMO tag (domain or fragment, human, UniProt O15294 2-474, looked up, O-GlcNAc transferase (OGT), human ncOGT (longest isoform, 1-1046, 13 TPR repeats), tetratricopeptide repeat region, residues 2-474; Unlabelled; this was not measured here; also called SUMO-OGT-TPR; SUMO-fused OGT-TPR) ASSVGNVADSTEPTKRMLSFQGLAELAHREYQAGDFEAAERHCMQLWRQEPDNTGVLLLLSSIHFQCRRLDRSAHFSTLAIKQNPLLAEAYSNLGNVYKERGQLQEAIEHYRHALRLKPDFIDGYINLAAALVAAGDMEGAVQAYVSALQYNPDLYCVRSDLGNLLKALGRLEEAKACYLKAIETQPNFAVAWSNLGCVFNAQGEIWLAIHHFEKAVTLDPNFLDAYINLGNVLKEARIFDRAVAAYLRALSLSPNHAVVHGNLACVYYEQGLIDLAIDTYRRAIELQPHFPDAYCNLANALKEKGSVAEAEDCYNTALRLCPTHADSLNNLANIKREQGNIEEAVRLYRKALEVFPEFAAAHSNLASVLQQQGKLQEALMHYKEAIRISPTFADAYSNMGNTLKEMQDVQGALQCYTRAIQINPAFADAHSNLASIHKDSGNIPEAIASYRTALKLKPDFPDAYCNLAHCLQ | – | 0.48 | 0.36 ± 0.22 |
